Target: the molecule itself
Experiment: SEC

B1: LexAPaS125A, full-length P. aeruginosa LexA carrying the S125A mutation in the catalytic dyad (natural protein)
chain: MQKLTPRQAEILSFIKRCLEDHGFPPTRAEIAQELGFKSPNAAEEHLKALARKGAIEMTPGASRGIRIPGFEPHAANDDEGLPVIGRVAAGAPILAEQNIEESCRINPAFFNPRADYLLRVRGMAMKDIGILDGDLLAVHVTREARNGQVVVARIGEEVTVKRFKREGSKVWLLAENPEFAPIEVDLKEQELIIEGLSVGVIRR
With B1 the “stoichiometry N” value was 2.

Reference: paper doi:10.1101/2024.03.22.585941 (bioRxiv, 2024)
